From publication PMC10842940, “Establishment of dsDNA-dsDNA interactions by the condensin complex” (Molecular cell, 2023) come the findings set out here.

The target of test [1] is T1, Cut14^Smc2 (fission yeast condensin SMC subunit) (S. pombe, UniProt P41003 1-1172).
T1 construct: Cut14 (Smc2), S. pombe condensin SMC subunit; cDNA cloned into an S. cerevisiae expression vector; The Pk tag is used for the condensin immunoprecipitation in the DNA assays; also called Cut14-3xPk; source: S. cerevisiae (w303, pep4 deleted), co-overexpressed with the other four condensin subunits from GAL1-10 promoters; in cell extract, and purified as the complex (IgG-agarose, 3C protease …)
T1 sequence (looked up): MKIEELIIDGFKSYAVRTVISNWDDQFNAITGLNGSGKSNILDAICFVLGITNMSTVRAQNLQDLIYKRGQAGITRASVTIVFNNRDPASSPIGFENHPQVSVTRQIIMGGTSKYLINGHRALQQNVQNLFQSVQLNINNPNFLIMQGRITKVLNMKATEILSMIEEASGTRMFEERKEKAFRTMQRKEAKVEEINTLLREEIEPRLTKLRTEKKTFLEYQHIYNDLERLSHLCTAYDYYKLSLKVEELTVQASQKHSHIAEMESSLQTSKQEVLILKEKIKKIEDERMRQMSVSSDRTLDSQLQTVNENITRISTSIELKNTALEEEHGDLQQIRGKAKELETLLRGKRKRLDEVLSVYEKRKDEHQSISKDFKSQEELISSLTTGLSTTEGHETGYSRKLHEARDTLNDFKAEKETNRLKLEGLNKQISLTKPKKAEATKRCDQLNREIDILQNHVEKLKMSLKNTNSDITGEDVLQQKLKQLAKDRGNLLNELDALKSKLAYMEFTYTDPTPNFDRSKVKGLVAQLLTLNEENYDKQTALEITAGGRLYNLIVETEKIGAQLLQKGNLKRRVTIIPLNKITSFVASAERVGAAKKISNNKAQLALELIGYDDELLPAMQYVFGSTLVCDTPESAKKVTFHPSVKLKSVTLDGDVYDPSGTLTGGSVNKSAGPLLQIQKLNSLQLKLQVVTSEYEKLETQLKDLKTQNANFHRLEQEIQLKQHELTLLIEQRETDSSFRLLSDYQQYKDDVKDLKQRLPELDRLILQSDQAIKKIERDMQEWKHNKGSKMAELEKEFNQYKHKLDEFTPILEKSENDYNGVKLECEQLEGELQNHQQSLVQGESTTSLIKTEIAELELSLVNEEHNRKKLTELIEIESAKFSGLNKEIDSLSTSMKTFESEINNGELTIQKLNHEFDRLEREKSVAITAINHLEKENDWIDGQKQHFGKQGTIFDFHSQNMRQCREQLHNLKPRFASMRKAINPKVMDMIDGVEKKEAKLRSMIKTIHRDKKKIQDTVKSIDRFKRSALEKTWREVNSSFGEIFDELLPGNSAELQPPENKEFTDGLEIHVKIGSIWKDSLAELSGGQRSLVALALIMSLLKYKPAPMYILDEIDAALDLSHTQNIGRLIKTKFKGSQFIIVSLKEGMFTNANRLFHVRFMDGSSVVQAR
Kind of test: cross-linking; sulfo-SDA cross-link mass spectrometry (CLMS) of the purified five-subunit condensin complex with equimolar 124 bp linear dsDNA, no nucleotide (initial state); CL buffer, 30°C 30 min, UV 365 nm on ice; 1% FDR at residue-pair level. The note with it: both partners purified.

Test [2] has as its target T2, Cnd1^Ycs4 (fission yeast condensin HEAT-repeat subunit) (S. pombe, UniProt O94679 1-1158).
T2 construct: Cnd1 (Ycs4), S. pombe condensin HEAT-repeat subunit; cDNA cloned into an S. cerevisiae expression vector; source: S. cerevisiae (w303, pep4 deleted), co-overexpressed with the other four condensin subunits from GAL1-10 promoters; in cell extract, and purified as the complex (IgG-agarose, 3C protease elution, heparin, Superose 6)
T2 sequence (looked up): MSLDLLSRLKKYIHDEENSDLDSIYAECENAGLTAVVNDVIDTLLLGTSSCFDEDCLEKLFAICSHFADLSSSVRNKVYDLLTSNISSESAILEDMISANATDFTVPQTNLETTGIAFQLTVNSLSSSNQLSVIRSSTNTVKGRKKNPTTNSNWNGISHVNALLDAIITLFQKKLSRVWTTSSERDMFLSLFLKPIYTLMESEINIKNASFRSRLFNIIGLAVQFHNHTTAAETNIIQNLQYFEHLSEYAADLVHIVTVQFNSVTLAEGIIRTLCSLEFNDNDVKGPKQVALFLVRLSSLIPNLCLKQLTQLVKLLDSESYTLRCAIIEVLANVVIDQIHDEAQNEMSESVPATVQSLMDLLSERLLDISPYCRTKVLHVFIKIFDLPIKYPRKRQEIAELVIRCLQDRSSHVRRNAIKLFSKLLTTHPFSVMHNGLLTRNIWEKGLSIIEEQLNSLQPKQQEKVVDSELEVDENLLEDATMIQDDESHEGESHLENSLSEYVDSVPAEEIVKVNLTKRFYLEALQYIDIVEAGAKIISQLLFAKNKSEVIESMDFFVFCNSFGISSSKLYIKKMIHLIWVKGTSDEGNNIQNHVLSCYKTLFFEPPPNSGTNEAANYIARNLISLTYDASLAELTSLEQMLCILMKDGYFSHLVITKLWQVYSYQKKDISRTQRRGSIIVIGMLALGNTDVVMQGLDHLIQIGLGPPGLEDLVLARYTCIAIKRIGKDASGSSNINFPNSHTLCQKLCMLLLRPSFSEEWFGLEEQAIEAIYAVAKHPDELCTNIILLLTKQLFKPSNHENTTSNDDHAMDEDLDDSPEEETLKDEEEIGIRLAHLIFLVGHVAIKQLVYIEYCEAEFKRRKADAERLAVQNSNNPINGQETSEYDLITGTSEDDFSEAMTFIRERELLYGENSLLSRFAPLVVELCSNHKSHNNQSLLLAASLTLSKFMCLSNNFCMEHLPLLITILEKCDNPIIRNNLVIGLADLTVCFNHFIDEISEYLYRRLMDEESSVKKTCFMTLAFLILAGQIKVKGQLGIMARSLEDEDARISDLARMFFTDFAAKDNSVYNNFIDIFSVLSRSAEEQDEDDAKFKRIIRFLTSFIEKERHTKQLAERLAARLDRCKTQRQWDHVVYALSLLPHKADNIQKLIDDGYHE
As to the kind of experiment: cross-linking; sulfo-SDA cross-link mass spectrometry (CLMS) of the purified five-subunit condensin complex with equimolar 124 bp linear dsDNA and 0.5 mM ADP·BeF3 (DNA-gripping state); CL buffer, 30°C 30 min, UV 365 nm on ice; 1% FDR at residue-pair level. The note with it: both partners purified.

B1: Cnd3^Ycg1 (fission yeast condensin HEAT-repeat subunit) (natural protein, S. pombe, UniProt Q10429 1-875, looked up)
chain: MSCIQIISSSQTSIAGHRKLCNKLFTLRTQEGFETDILRALNIILTVKKGNSNADRVLRFLVTFVNYLQQKDPEIDIVQPILKHILRGLDAKDKTVRYRCCQIIARVVNCVKEIDDDLYNTLKEKLLSRVLDRESIVRLEAVVALSRLQEDTGDEENDVRNILLFLLQNDPSSEVRRSVLLNIEVSNSTLPFILERARDVDAANRKCVYARVLPKIGDFRYLSIKKRVRILKWGLNDRDESVEKAAADMLAYQWIENADNNLLELLERLDVSNNSDVAVLAIKKFFDVRVDSLSQLEFPEQFWLELTAESSLLARTFNEICIEKNYTDLLDKMPEVVQLTYYIERQYVSLRDKSSYDESCFIIEQLLYIGLSQDMVDEIGRRKLLKSLTNSLSTMALPDSLISLHIELLRKLCSSENDFCSLLVEIITEVFEQGHSQNQTEEQGNSNAPELNKNDYEGEEITVSQKSPSPSLPPNELNEPEPDDMDGYKEAFNELRCLSYVQCLFENITSSLNENLYMVDMLKTLIIPAVRSHDLPIREKGLECLSLVCLLNADLAFENVPLYLHCYEKGSVVLKCTAIRTLTDMLIQHGKAKFTEYEDAISSILFEALGEFENAELQTLGAEAIAKLLVILHYRDELFLKPLIIQYFEPNTVDNHALRQVLGYFFPVYAFGAHENQWRIATIFCDALLSLLEIYRDLDEDDVQLSIGHIAQQMLDWTDNEKLYERKTQTGDDYIALNHNVHLHLANMIFESLPNASEGKERKFMISLLGKLKIPTDLPSSDYQRTKRKLETYESHGFTMDSTSLSILAKFERMLLQNEEARSKFEETEEERLMENAEENEHAGAEAISGEIIPDTVEANMEDEEEVYVKQEEDL
notes: Cnd3 (Ycg1), S. pombe condensin HEAT-repeat subunit; cDNA cloned into an S. cerevisiae expression vector; also called Cnd3^CAP-G; source: S. cerevisiae (w303, pep4 deleted), co-overexpressed with the other four condensin subunits from GAL1-10 promoters; in cell extract, and purified as the complex (IgG-agarose, 3C protease elution, heparin, Superose 6)
Consider B1, for which the binding result in test [1] and in test [2] was “binds” each time.
